Results: PMC11510292, “Heterobivalent Dual-Target Peptide for Integrin-αvβ3 and Neuropeptide Y Receptors on Breast Tumor” (Pharmaceuticals, 2024)
Like-named read-outs stand apart in the source and are kept apart here.

Columns and labels:
[1] = Ex vivo biodistribution and blood clearance in healthy Balb/c mice; conditions: for tissue uptake at 5 min / tissue uptake at 0.5 h / tissue uptake at 1 h / tissue uptake at 2 h / tissue uptake at 4 h / tissue uptake at 6 h: mouse, 37 MBq, total radioactivity; for tissue uptake at 5 min: 5 min after IV injection; for tissue uptake at 0.5 h: 30 min after IV injection; for tissue uptake at 1 h: 1 h after IV injection; for tissue uptake at 2 h: 2 h after IV injection; for tissue uptake at 4 h: 4 h after IV injection; for tissue uptake at 6 h: 6 h after IV injection
Protocol: The ex vivo biodistribution analysis performed with healthy Balb/c mice is presented in Figure 2 and Figure 3, and Table 1. Values are expressed as a percentage of injected activity per gram (%IA/g) of tissue and per milliliter (%IA/mL) of blood.
(§1) […] Animals were deeply anesthetized and euthanized at the corresponding biodistribution time point. Blood, brain, spleen, heart, stomach, liver, lungs, kidneys, pancreas, muscle, bone, small intestine, and large intestine were collected and weighed. The radioactivity of each organ/tissue was then determined using the above-mentioned automatic gamma counter. The radioactivity was evaluated as the percentage of injected activity per gram of organ/tissue (%IA/g), using the same injected dose activity as a standard. Receptor-blocking studies in tumor models were also carried out by co-administration of 100 μg of cold-conjugated peptide along with radiopeptide.

[2] = Biodistribution in SCID mice bearing MCF-7 xenografts; assay type: in vivo; conditions: female, mouse, total radioactivity; for tissue uptake at 1 h / tissue uptake per volume at 1 h: SCID, MCF-7 model, 60 min p.i., 0.1 mL/18.5 MBq IV; for tissue uptake per volume at 1 h: whole blood
Protocol: (§2) To evaluate the uptake of the radiolabeled peptide by breast tumors, additional biodistribution studies were performed in SCID mice bearing MCF-7 and MDA-MB-231 xenografts (Table 2). […] The tumor uptakes of the radiolabeled conjugate were 9.30 ± 3.25% for MCF-7 and 4.93 ± 1.01% for MDA-MB-231 (Figure 5). The tumor-to-muscle ratios were 5.65 ± 0.94 for the MCF-7 model and 7.78 ± 3.20 for the MDA-MB-231 model (Figure 6).
(§3) The animals used in this experiment were provided by the Nuclear and Energy Research Institute (IPEN/CNEN-SP) vivarium. Every effort was made to minimize animal suffering per International Ethical Guidelines. The experimental protocols used in this study were approved by the Scientific Ethics Committee of the IPEN/CNEN-SP. Adult female SCID mice were maintained under controlled environmental conditions (12 h light-dark cycle; constant temperature 21 ± 2 °C), with free access to water and food. Suspensions of cells (5 × 10^6 in 0.1 mL) were subcutaneously injected into the upper back regions of the mice.
as §1

[3] = Biodistribution in SCID mice bearing MDA-MB-231 xenografts; assay type: in vivo; conditions: female, mouse, total radioactivity; for tissue uptake at 1 h / tissue uptake per volume at 1 h: SCID, MDA-MB231 model, 60 min p.i., 0.1 mL/18.5 MBq IV; for tissue uptake per volume at 1 h: whole blood
Protocol: as §2, §3, §1

[4] = bone, mean ± SD n = 5, read-out: Bone uptake
[5] = brain, mean ± SD n = 5, read-out: Brain uptake
[6] = heart, mean ± SD n = 5, read-out: Heart uptake
[7] = lung, mean ± SD n = 5, read-out: Lung uptake
[8] = muscle, mean ± SD n = 5, read-out: Muscle uptake
[9] = pancreas, mean ± SD n = 5, read-out: Pancreas uptake
[10] = spleen, mean ± SD n = 5, read-out: Spleen uptake
[11] = stomach, mean ± SD n = 5, read-out: Stomach uptake
[12] = bone, Block with excess cold peptide, n = 3, read-out: Bone uptake
[13] = bone, Non-Block, n = 5, read-out: Bone uptake
[14] = brain, Block with excess cold peptide, n = 3, read-out: Brain uptake
[15] = brain, Non-Block, n = 5, read-out: Brain uptake
[16] = heart, Block with excess cold peptide, n = 3, read-out: Heart uptake
[17] = heart, Non-Block, n = 5, read-out: Heart uptake
[18] = kidneys, Block with excess cold peptide, n = 3, read-out: Kidneys uptake
[19] = kidneys, Non-Block, n = 5, read-out: Kidneys uptake
[20] = large intestine, Block with excess cold peptide, n = 3, read-out: Large Intestine uptake
[21] = large intestine, Non-Block, n = 5, read-out: Large Intestine uptake
[22] = liver, Block with excess cold peptide, n = 3, read-out: Liver uptake
[23] = liver, Non-Block, n = 5, read-out: Liver uptake
[24] = lungs, Block with excess cold peptide, n = 3, read-out: Lungs uptake
[25] = lungs, Non-Block, n = 5, read-out: Lungs uptake
[26] = muscle, Block with excess cold peptide, n = 3, read-out: Muscle uptake
[27] = muscle, Non-Block, n = 5, read-out: Muscle uptake
[28] = pancreas, Block with excess cold peptide, n = 3, read-out: Pancreas uptake
[29] = pancreas, Non-Block, n = 5, read-out: Pancreas uptake
[30] = small intestine, Block with excess cold peptide, n = 3, read-out: Small Intestine uptake
[31] = small intestine, Non-Block, n = 5, read-out: Small Intestine uptake
[32] = spleen, Block with excess cold peptide, n = 3, read-out: Spleen uptake
[33] = spleen, Non-Block, n = 5, read-out: Spleen uptake
[34] = stomach, Block with excess cold peptide, n = 3, read-out: Stomach uptake
[35] = stomach, Non-Block, n = 5, read-out: Stomach uptake
[36] = tumor, Non-Block, n = 5, read-out: Tumor uptake
[37] = Block with excess cold peptide, n = 3

CCCC[C@H](NC(=O)[C@H](CCCNC(=N)N)NC(=O)[C@H](Cc1c[nH]c2ccccc12)NC(=O)[C@H](CSCC(=O)NCCCC[C@@H]1NC(=O)[C@@H](Cc2ccccc2)NC(=O)[C@H](CC(=O)O)NC(=O)CNC(=O)[C@H](CCCNC(=N)N)NC1=O)NC(=O)[C@@H]1CCCN1C(=O)[C@H](CC(N)=O)NC(=O)[C@@H](NC(=O)COCCOCCNC(=O)c1ccc(NN)nc1)[C@@H](C)CC)C(=O)N[C@@H](CCCNC(=N)N)C(=O)N[C@@H](Cc1ccc(O)cc1)C(N)=O [[^99mTc]HYNIC-cRGDfk-NPY, metal not drawn]
Blood half-life ([1]; IV, 0.05 mL/18.5 MBq, exponential decay fit of %IA/mL): 23.04 min
decrease in blood activity ([1]; IV, within 1 h): approximately 90%
crossing of blood-brain barrier ([1]; from low brain uptake): did not cross the blood–brain barrier
tissue uptake at 5 min [1, 4]: 3.19 ± 0.76 %ID/g
tissue uptake at 0.5 h [1, 4]: 3.71 ± 1.37 %ID/g
tissue uptake at 1 h [1, 4]: 2.52 ± 1.67 %ID/g
tissue uptake at 2 h [1, 4]: 0.71 ± 0.22 %ID/g
tissue uptake at 4 h [1, 4]: 0.46 ± 0.14 %ID/g
tissue uptake at 6 h [1, 4]: 0.54 ± 0.28 %ID/g
tissue uptake at 5 min [1, 5]: 0.37 ± 0.11 %ID/g
tissue uptake at 0.5 h [1, 5]: 0.22 ± 0.15 %ID/g
tissue uptake at 1 h [1, 5]: 0.12 ± 0.03 %ID/g
tissue uptake at 2 h [1, 5]: 0.07 ± 0.01 %ID/g
tissue uptake at 4 h [1, 5]: 0.04 ± 0.01 %ID/g
tissue uptake at 6 h [1, 5]: 0.04 ± 0.01 %ID/g
tissue uptake at 5 min [1, 6]: 4.3 ± 1.32 %ID/g
tissue uptake at 0.5 h [1, 6]: 3.21 ± 1.22 %ID/g
tissue uptake at 1 h [1, 6]: 1.04 ± 0.23 %ID/g
tissue uptake at 2 h [1, 6]: 0.55 ± 0.07 %ID/g
tissue uptake at 4 h [1, 6]: 0.35 ± 0.12 %ID/g
tissue uptake at 6 h [1, 6]: 0.33 ± 0.09 %ID/g
tissue uptake at 5 min [1, 7]: 9.8 ± 3.16 %ID/g
tissue uptake at 0.5 h [1, 7]: 4.8 ± 2.67 %ID/g
tissue uptake at 1 h [1, 7]: 2.64 ± 0.83 %ID/g
tissue uptake at 2 h [1, 7]: 1.17 ± 0.2 %ID/g
tissue uptake at 4 h [1, 7]: 0.63 ± 0.17 %ID/g
tissue uptake at 6 h [1, 7]: 1.65 ± 2.02 %ID/g
tissue uptake at 5 min [1, 8]: 2.16 ± 0.62 %ID/g
tissue uptake at 0.5 h [1, 8]: 1.5 ± 0.41 %ID/g
tissue uptake at 1 h [1, 8]: 0.68 ± 0.33 %ID/g
tissue uptake at 2 h [1, 8]: 0.39 ± 0.09 %ID/g
tissue uptake at 4 h [1, 8]: 0.22 ± 0.07 %ID/g
tissue uptake at 6 h [1, 8]: 0.21 ± 0.03 %ID/g
tissue uptake at 5 min [1, 9]: 3.39 ± 0.92 %ID/g
tissue uptake at 0.5 h [1, 9]: 2.52 ± 0.89 %ID/g
tissue uptake at 1 h [1, 9]: 1.17 ± 0.45 %ID/g
tissue uptake at 2 h [1, 9]: 0.53 ± 0.1 %ID/g
tissue uptake at 4 h [1, 9]: 0.35 ± 0.12 %ID/g
tissue uptake at 6 h [1, 9]: 0.34 ± 0.11 %ID/g
tissue uptake at 5 min [1, 10]: 6.06 ± 2.9 %ID/g
tissue uptake at 0.5 h [1, 10]: 6.14 ± 2.29 %ID/g
tissue uptake at 1 h [1, 10]: 3.41 ± 1.17 %ID/g
tissue uptake at 2 h [1, 10]: 2.22 ± 0.37 %ID/g
tissue uptake at 4 h [1, 10]: 1.69 ± 0.34 %ID/g
tissue uptake at 6 h [1, 10]: 1.98 ± 0.63 %ID/g
tissue uptake at 5 min [1, 11]: 8.05 ± 2.56 %ID/g
tissue uptake at 0.5 h [1, 11]: 7.17 ± 1.38 %ID/g
tissue uptake at 1 h [1, 11]: 3.97 ± 0.78 %ID/g
tissue uptake at 2 h [1, 11]: 2.62 ± 0.68 %ID/g
tissue uptake at 4 h [1, 11]: 1.81 ± 0.5 %ID/g
tissue uptake at 6 h [1, 11]: 1.79 ± 0.58 %ID/g
tissue uptake at 1 h [2, 12]: 1.08 ± 0.77 %ID/g
tissue uptake at 1 h [2, 13]: 1.4 ± 0.72 %ID/g
tissue uptake at 1 h [2, 14]: 0.08 ± 0.01 %ID/g
tissue uptake at 1 h [2, 15]: 0.16 ± 0.06 %ID/g
tissue uptake at 1 h [2, 16]: 0.65 ± 0.24 %ID/g
tissue uptake at 1 h [2, 17]: 1.53 ± 0.45 %ID/g
tissue uptake at 1 h [2, 18]: 20.8 ± 7.02 %ID/g
tissue uptake at 1 h [2, 19]: 24.6 ± 8.6 %ID/g
tissue uptake at 1 h [2, 20]: 3.91 ± 2.11 %ID/g
tissue uptake at 1 h [2, 21]: 6.41 ± 1.63 %ID/g
tissue uptake at 1 h [2, 22]: 1.84 ± 0.13 %ID/g
tissue uptake at 1 h [2, 23]: 3.61 ± 0.73 %ID/g
tissue uptake at 1 h [2, 24]: 1.59 ± 0.34 %ID/g
tissue uptake at 1 h [2, 25]: 3.58 ± 1.22 %ID/g
tissue uptake at 1 h [2, 26]: 0.59 ± 0.37 %ID/g
tissue uptake at 1 h [2, 27]: 1.56 ± 1.41 %ID/g
tissue uptake at 1 h [2, 28]: 1.12 ± 0.42 %ID/g
tissue uptake at 1 h [2, 29]: 1.62 ± 0.3 %ID/g
tissue uptake at 1 h [2, 30]: 3.77 ± 0.95 %ID/g
tissue uptake at 1 h [2, 31]: 10.3 ± 2.18 %ID/g
tissue uptake at 1 h [2, 32]: 2.53 ± 0.74 %ID/g
tissue uptake at 1 h [2, 33]: 5.33 ± 1.88 %ID/g
tissue uptake at 1 h [2, 34]: 2.98 ± 0.57 %ID/g
tissue uptake at 1 h [2, 35]: 6.04 ± 1.15 %ID/g
tissue uptake at 1 h ([2]; tumor, Block with excess cold peptide, n = 3, p > 0.05 vs non-block, read-out: Tumor uptake): 4.41 ± 2.13 %ID/g
tissue uptake at 1 h [2, 36]: 9.3 ± 3.25 %ID/g
tissue uptake per volume at 1 h [2, 37]: 0.92 ± 0.07 %ID/mL
tissue uptake per volume at 1 h ([2]; Non-Block, n = 5): 1.66 ± 0.89 %ID/mL
tissue to tissue ratio at 1 h ([2]; tumor and muscle, 37 MBq, MCF-7 tumor-bearing SCID mice, 1 h after IV injection, n = 5): 5.65 ± 0.94
tissue uptake at 1 h [3, 12]: 0.53 ± 0.16 %ID/g
tissue uptake at 1 h [3, 13]: 1.22 ± 0.28 %ID/g
tissue uptake at 1 h [3, 14]: 0.09 ± 0.01 %ID/g
tissue uptake at 1 h [3, 15]: 0.18 ± 0.04 %ID/g
tissue uptake at 1 h [3, 16]: 0.74 ± 0.2 %ID/g
tissue uptake at 1 h [3, 17]: 1.48 ± 0.29 %ID/g
tissue uptake at 1 h [3, 18]: 13 ± 2.68 %ID/g
tissue uptake at 1 h [3, 19]: 19.3 ± 2.89 %ID/g
tissue uptake at 1 h [3, 20]: 2.22 ± 0.98 %ID/g
tissue uptake at 1 h [3, 21]: 5.18 ± 0.87 %ID/g
tissue uptake at 1 h [3, 22]: 1.41 ± 0.62 %ID/g
tissue uptake at 1 h [3, 23]: 3.75 ± 0.51 %ID/g
tissue uptake at 1 h [3, 24]: 1.95 ± 0.6 %ID/g
tissue uptake at 1 h [3, 25]: 3.27 ± 0.47 %ID/g
tissue uptake at 1 h [3, 26]: 0.33 ± 0.02 %ID/g
tissue uptake at 1 h [3, 27]: 0.88 ± 0.13 %ID/g
tissue uptake at 1 h [3, 28]: 0.7 ± 0.21 %ID/g
tissue uptake at 1 h [3, 29]: 1.35 ± 0.35 %ID/g
tissue uptake at 1 h [3, 30]: 2.16 ± 0.74 %ID/g
tissue uptake at 1 h [3, 31]: 8.3 ± 1.36 %ID/g
tissue uptake at 1 h [3, 32]: 1.51 ± 0.22 %ID/g
tissue uptake at 1 h [3, 33]: 5.02 ± 0.63 %ID/g
tissue uptake at 1 h [3, 34]: 2.05 ± 0.33 %ID/g
tissue uptake at 1 h [3, 35]: 5.63 ± 0.96 %ID/g
tissue uptake at 1 h ([3]; tumor, Block with excess cold peptide, n = 3, p < 0.05 vs non-block, read-out: Tumor uptake): 2.3 ± 0.41 %ID/g
tissue uptake at 1 h [3, 36]: 4.93 ± 1.01 %ID/g
tissue uptake per volume at 1 h [3, 37]: 1.4 ± 0.21 %ID/mL
tissue uptake per volume at 1 h ([3]; Non-Block, n = 5): 1.8 ± 1.03 %ID/mL
tissue to tissue ratio at 1 h ([3]; tumor and muscle, 37 MBq, MDA-MB-231 tumor-bearing SCID mice, 1 h after IV injection, n = 5): 7.78 ± 3.2
